Source: article PMC6013450, “A convenient protocol for generating giant unilamellar vesicles containing SNARE proteins using electroformation” (Scientific Reports, 2018)

Target: T1, syntaxin-1A (183–288) (Rattus norvegicus, UniProt P32851 183-288)
T1 construct: syntaxin-1A, Rattus norvegicus, residues 183-288, contains the transmembrane region; source: E. coli BL21 (DE3), purified (Ni-NTA, ion exchange MonoQ, buffer with 1% CHAPS)
Assay: ion exchange chromatography of the assembled complex; monomers mixed overnight at 4 °C; complex purified on a MonoQ column in a buffer containing CHAPS
Details: both partners purified

T1 sequence (P32851 183-288): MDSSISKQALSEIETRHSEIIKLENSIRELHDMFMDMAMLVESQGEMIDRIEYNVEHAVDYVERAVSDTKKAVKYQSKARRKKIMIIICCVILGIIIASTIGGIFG

B1: synaptobrevin-2 fragment (49–96) (domain or fragment, Rattus norvegicus, UniProt P63045 49-96, looked up)
chain: NVDKVLERDQKLSELDDRADALQAGASQFETSAAKLKRKYWWKNLKMM
notes: synaptobrevin-2, Rattus norvegicus, residues 49-96; also called synaptobrevin fragment 49–96; source: E. coli BL21 (DE3), purified (Ni-NTA, ion exchange MonoS)
- binding result: binds
